Source: US20120324600A1, “CONSTITUTIVE SYNTHETIC PLANT PROMOTERS AND METHODS OF USE” (SYNGENTA PARTICIPATIONS AG, priority 2010, published 2012)

Assays:
Assay type in all cases: in vivo
transgenic corn events = assay: Glyphosate phytotoxicity (percent injury) of transgenic corn events carrying promoter-EPSPS cassettes; conditions: maize; for efficiency in promoting expression of an operably linked heterologous sequence compared with unmodified cestrum virus promoter: EPSPS gene, glyphosate tolerance
Excerpt: SEQ ID NO: 8 was synthesized by Gene Art as a SanDI/BamHI fragment then ligated directly into a cloning vector harboring the EPSPS gene (cZmEPSPSct-01) to confer glyphosate tolerance (Terada, et al., (1995) A type I element composed of the hexamer (ACGTCA) and octamer (CGCGGATC) motifs plays a role(s) in meristematic expression of a wheat histone H3 gene in transgenic rice plants. Plant Molecular Biology 27: 17-26). SEQ ID NO: 9 was created by ligation of the xZmH3Cis DNA elements to the prCMP promoter as an NheI fragment such that these elements are 5′ to the TATA-BOX (Brignon, et al., (1993) Nuclease sensitivity and functional analysis of a maize histone H3 gene promoter. Plant Molecular Biology 22: 1007-1015).
See Table 9 for glyphosate phytotoxicity, in terms of percent injury. Plants were sprayed with an appropriate amount of glyphosate (i.e. 4× Touchdown®) at the V4 stage and the V8 stage. Percent injury was measured at 7 and 14 days after the V4 stage glyphosate spray, as well as 7 and 14 days after V8 stage glyphosate spray.

[1] = test system: oat HPPD protein expression; assay: oat HPPD protein expression by ELISA in T1 transgenic soybean events; conditions: inferred from ELISA and mesotrione tolerance of HOM vs HET siblings
Excerpt: To express a synthetic oat (Avena sativa) 4-hydroxyphenylpyruvate dioxygenase (cAvHPPD) in stably transformed soybean, viral transcriptional and translational enhancers, and a minimal promoter were created by PCR or direct DNA synthesis and combined by standard DNA restriction digestion and ligation reactions. A synthetic plant promoter comprising defined components eFMV (SEQ ID NO: 1), eTMV (SEQ ID NO: 2), the Cauliflower Mosaic Virus 35S enhancer region (e35S) and a minimal promoter (pr35SCMP: Cestrum Yellow Leaf Curl virus TATA-box motif; no CAAT 35S-proximal promoter sequence) were combined to create SEQ ID NO: 3. Subsequently, SEQ ID NO: 3 was modified by digestion with a DNA restriction enzyme XhoI to remove defined components e35S, pr35SCMP (including the TATA-box motif) followed by a standard ligation reaction to create SEQ ID NO: 4. […] One skilled in the art would readily recognize other subelements which would be suitable to use.
The plasmids containing the synthetic plant promoter expression cassettes were transformed into soybean using Agrobacterium tumefaciens. […] Expression of cAvHPPD of surviving T0 plants was quantified by ELISA (Engvall E, Perlman P (1971). “Enzyme-linked immunosorbent assay (ELISA). Quantitative assay of immunoglobulin G”. Immunochemistry 8(9):871-874).
(§1) The first generation transgenic soybean events (T1) harboring SEQ ID NO: 3, SEQ ID NO: 4, SEQ ID NO: 5, SEQ ID NO: 6, or SEQ ID NO: 7 were characterized for segregation analysis, oat HPPD protein expression and tolerance to mesotrione herbicide spray. The green leaf tissues from the first trifoliate of five independent events were sampled to determine the segregation ratios (homozygous, heterozygous or null) of the individual seedlings as determined by zygosity Taqman® assays and oat HPPD protein expression by ELISA. At the V2 stage, the seedlings were sprayed with the HPPD inhibiting herbicide mesotrione and tolerance rating determined approximately 10 days post-application.

[2] = test system: transgenic soybean events; assay: tolerance to mesotrione herbicide spray of T1 transgenic soybean seedlings; conditions: sprayed at V2 stage, rated approximately 10 days post-application
Excerpt: as §1

B1: SEQ ID NO: 9: synthetic plant promoter for maize, subelements eFMV, e35S, eNOS, prCMP, xZmH3Cis, eTMV; 1294 bp (nucleic acid)
DNA: AGCTGCTTGTGGGGACCAGACAAAAAAGGAATGGTGCAGAATTGTTAGGCGCACCTACCAAAAGCATCTTTGCCTTTATTGCAAAGATAAAGCAGATTCCTCTAGTACAAGTGGGGAACAAAATAACGTGGAAAAGAGCTGTCCTGACAGCCCACTCACTAATGCGTATGACGAACGCAGTGACGACCACAAAACTCGAGACTTTTCAACAAAGGGTAATATCCGGAAACCTCCTCGGATTCCATTGCCCAGCTATCTGTCACTTTATTGTGAAGATAGTGGAAAAGGAAGGTGGCTCCTACAAATGCCATCATTGCGATAAAGGAAAGGCTATCGTTGAAGATGCCTCTGCCGACAGTGGTCCCAAAGATGGACCCCCACCCACGAGGAGCATCGTGGAAAAAGAAGACGTTCCAACCACGTCTTCAAAGCAAGTGGATTGATGTGATATCTCCACTGACGTAAGGGATGACGAACAATCCCACTATCCTTCTGCCGGACCCTCATGAGCGGAGAATTAAGGGAGTCACGTTATGACCCCCGCCGATGACGCGGGACAAGCCGTTTTACGTTTGGAACTGACAGAACCGCAACGAAGCTTTGGCAGACAAAGTGGCAGACATACTGTCCCACAAATGAAGATGGAATCTGTAAAAGAAAACGCGTGAAATAATGCGTCTGACAAAGGTTAGGTCGGCTGCCTTTAATCAATACCAAAGTGGTCCCTACCACGATGGAAAAACTGTGCAGTCGGTTTGGCTTTTTCTGACGAACAAATAAGATTCGTGGCCGACAGGTGGGGGTCCACCATGTGAAGGCATCTTCAGACTCCAATAATGGAGCAATGACGTAAGGGCTTACGAAATAAGTAAGGGTAGTTTGGCATATGCTGGTGGCAGAGGGTGTGCTTCCCTGCTTGGGCGGGCACGCTGGGATGGCGAAAATTTTCGGAAGCGCTGGGATGGCGAAAATTTTCGGAAGCGCTGGGCGCTGGCGCGGGCGGCGGACAACTATGGGTCGTTGGATTGGGAATTGGGATGGAGGGCGAGGGTGTCGCTGCTGGCGGGGGTCGATCCGCGTGTTGAGCGATCTGCGAGGATTATGTCCACTCACCCGTCAGTCTATAAATACTTAGCCCCTCCCTCATTGTTAAGGGAGCAAAATCTCAGAGAGATAGTCCTAGAGAGAGAAAGAGAGCAAGTAGCCTAGAAGTGGATCCACCTCGAGTATTTTTACAACAATTACCAACAACAACAAACAACAAACAACATTACAATTACTATTTACAATTACACATGTAAACC
modifications: synthetic plant promoter
notes: synthetic plant promoter for maize, subelements eFMV, e35S, eNOS, prCMP, xZmH3Cis, eTMV; 1294 bp
B1 was tested, and the “evidence of HDGS and HDMS” value (transgenic corn events) was “no evidence of HDGS and HDMS”, the “efficiency in promoting expression of an operably linked heterologous sequence compared with unmodified cestrum virus promoter” value (transgenic corn events) was “function at least as well on average as the unmodified cestrum virus promoter” and the “efficiency in promoting expression of an operably linked heterologous sequence compared with unmodified cestrum virus promoter” value (transgenic corn events; listed as 9) was “as efficient in promoting the expression of an operably linked heterologous sequence as an unmodified cestrum virus promoter”.

B2: SEQ ID NO: 4: synthetic plant promoter, subelements eFMV, eTMV; 267 bp (nucleic acid)
DNA: AGCTGCTTGTGGGGACCAGACAAAAAAGGAATGGTGCAGAATTGTTAGGCGCACCTACCAAAAGCATCTTTGCCTTTATTGCAAAGATAAAGCAGATTCCTCTAGTACAAGTGGGGAACAAAATAACGTGGAAAAGAGCTGTCCTGACAGCCCACTCACTAATGCGTATGACGAACGCAGTGACGACCACAAAACTCGAGTATTTTTACAACAATTACCAACAACAACAAACAACAAACAACATTACAATTACTATTTACAATTACA
modifications: synthetic plant promoter
notes: synthetic plant promoter, subelements eFMV, eTMV; 267 bp
For B2, the “transgene silencing in HOM plants” value [1] was “relieve transgene silencing” and the “tolerance to mesotrione herbicide spray” value [2] was “improved tolerance to the HPPD inhibitor herbicide mesotrione”.

B3: SEQ ID NO: 8: synthetic plant promoter for maize, subelements eFMV, e35S, prTaHisH3, eTMV; 834 bp (nucleic acid)
DNA: AGCTGCTTGTGGGGACCAGACAAAAAAGGAATGGTGCAGAATTGTTAGGCGCACCTACCAAAAGCATCTTTGCCTTTATTGCAAAGATAAAGCAGATTCCTCTAGTACAAGTGGGGAACAAAATAACGTGGAAAAGAGCTGTCCTGACAGCCCACTCACTAATGCGTATGACGAACGCAGTGACGACCACAAAACTCGAGACTTTTCAACAAAGGGTAATATCCGGAAACCTCCTCGGATTCCATTGCCCAGCTATCTGTCACTTTATTGTGAAGATAGTGGAAAAGGAAGGTGGCTCCTACAAATGCCATCATTGCGATAAAGGAAAGGCTATCGTTGAAGATGCCTCTGCCGACAGTGGTCCCAAAGATGGACCCCCACCCACGAGGAGCATCGTGGAAAAAGAAGACGTTCCAACCACGTCTTCAAAGCAAGTGGATTGATGTGATATCTCCACTGACGTAAGGGATGACGAACAATCCCACTATCCTTCTGCCGGACCCAAGCTTTCGGCCACGTCACCAATCCGCGGCATTCCTACCCGGATCGCCATCTCGACCGTCCACTCCATCCGCATCCAACGGCAAGTACATGCCTCTCGTCCCCTCCCGAAAAACCAAAACCCAAACCCGCCCGCTCTCTCGGTGCTCCTCCTATTTAACTCCGCCCCGTCCCCTTCTTCCTCCTCACCCCAATCTCCCCAGCCCCCAACCACCAGAGCCTCCTCCTCCCCTCCGGCGCATCGACGACAAGGGATCCACCTCGAGTATTTTTACAACAATTACCAACAACAACAAACAACAAACAACATTACAATTACTATTTACAATTACACATGTAAACC
modifications: synthetic plant promoter
notes: synthetic plant promoter for maize, subelements eFMV, e35S, prTaHisH3, eTMV; 834 bp
B3 was tested, and the “evidence of HDGS and HDMS” value (transgenic corn events) was “no evidence of HDGS and HDMS”, the “efficiency in promoting expression of an operably linked heterologous sequence compared with unmodified cestrum virus promoter” value (transgenic corn events) was “function at least as well on average as the unmodified cestrum virus promoter” and the “efficiency in promoting expression of an operably linked heterologous sequence compared with unmodified cestrum virus promoter” value (transgenic corn events; listed as 8) was “as efficient in promoting the expression of an operably linked heterologous sequence as an unmodified cestrum virus promoter”.
